Test results: patent US5405758

Biological target: mite allergen fused protein expressed by pAEX201 in E. coli pop2136 (purified recombinant mite allergen fused protein) (Dermatophagoides farinae)
Settings: scale: times lower concentration at the inflexion point than the crude mite body antigen

- histamine release, percent ratio of the released histamine (HPLC): > 200
Substance: blood cells from a mite asthma patient, washed with Hanks' solution (cells without a defined receptor)
